Assay results from the Human Domainome abundance scans (Beltran et al. 2025).
± gives the uncertainty stated by the source.

B1: Zinc finger protein ZIC 2, residues 250 to 295; numbered along this chain, O95409 (parent)
chain: QCIKQELICKWIDPEQLSNPKKSCNKTFSTMHELVTHVSVEHVGGP

Variants of: B1
Test: abundance fitness (aPCA) (normalised: wild type 0, dead -1); higher = more abundant; growth selection in yeast, the domain comes from the species named
Conditions: Homo sapiens

Row | Variant | abundance fitness
1 | Q5A | -0.071 ± 0.098
2 | P14E | -0.216 ± 0.11
3 | P14G | -0.237 ± 0.085
4 | P14M | -0.334 ± 0.12
5 | M31E | 0.373 ± 0.089
6 | M31A | 0.12 ± 0.085
7 | M31S | 0.321 ± 0.089
8 | M31I | 0.318 ± 0.1
9 | M31K | 0.518 ± 0.097
10 | L34I | -0.79 ± 0.15
11 | L34H | -0.569 ± 0.14
12 | L34T | -0.696 ± 0.1
13 | L34Y | 0.544 ± 0.11
14 | L34W | -0.029 ± 0.096
15 | K22H | -0.006 ± 0.12
16 | K22E | -0.285 ± 0.11
17 | S23H | 0.156 ± 0.12
18 | S23C | 0.029 ± 0.098
19 | S23L | 0.282 ± 0.09
20 | S23I | 0.095 ± 0.17
21 | S23D | -0.287 ± 0.11
22 | I12A | -0.363 ± 0.093
23 | I12G | -0.278 ± 0.086
24 | I12Q | -0.144 ± 0.11

Row | Variant | abundance fitness
25 | W11M | -0.146 ± 0.1
26 | W11T | -0.413 ± 0.11
27 | W11L | -0.079 ± 0.089
28 | P46C | 0.1 ± 0.29
29 | E33C | -0.777 ± 0.11
30 | E33L | -0.735 ± 0.095
31 | E33K | -0.615 ± 0.12
32 | E33G | -0.166 ± 0.084
33 | E33V | -0.838 ± 0.092
34 | G45C | -0.017 ± 0.1
35 | G45D | 0.034 ± 0.088
36 | G45I | 0.133 ± 0.12
37 | G45R | -0.114 ± 0.087
38 | G45E | -0.032 ± 0.1
39 | C9Y | -0.829 ± 0.098
40 | C9P | -0.776 ± 0.11
41 | C9F | -0.975 ± 0.14
42 | C9Q | -0.675 ± 0.12
43 | C9H | -1.03 ± 0.17
44 | H32L | -0.471 ± 0.089
45 | H32M | -0.263 ± 0.095
46 | H32F | 0.012 ± 0.11
47 | H32E | 0.082 ± 0.096
48 | H42C | -1.16 ± 0.14

Row | Variant | abundance fitness
49 | H42Q | -0.909 ± 0.13
50 | H42I | -0.862 ± 0.12
51 | H42W | -0.707 ± 0.12
52 | Q1N | 0.294 ± 0.16
53 | Q1C | -0.274 ± 0.23
54 | Q1D | 0.21 ± 0.17
55 | T36Q | 0.055 ± 0.1
56 | T36V | -0.38 ± 0.088
57 | T36L | -0.453 ± 0.089
58 | T36Y | -0.25 ± 0.11
59 | L7N | 0.22 ± 0.11
60 | L7M | 0.191 ± 0.099
61 | L7K | 0.309 ± 0.099
62 | L7W | -0.223 ± 0.09
63 | L7R | 0.044 ± 0.084
64 | L7Y | -0.152 ± 0.11
65 | V40W | -0.581 ± 0.1
66 | V40I | -0.01 ± 0.11
67 | V40R | -0.134 ± 0.086
68 | V40S | 0.001 ± 0.088
69 | V40N | 0.075 ± 0.11
70 | V40H | -0.136 ± 0.13
71 | C24L | -0.901 ± 0.1
72 | C24V | -0.86 ± 0.097

Row | Variant | abundance fitness
73 | C24T | -0.8 ± 0.11
74 | C24G | -0.61 ± 0.088
75 | C24A | -0.836 ± 0.1
76 | C24I | -1.12 ± 0.18
77 | K10A | -0.193 ± 0.087
78 | K10H | 0.236 ± 0.11
79 | K10P | -0.45 ± 0.11
80 | K10L | -0.248 ± 0.091
81 | K10C | -0.19 ± 0.11
82 | F28T | -0.631 ± 0.1
83 | I8W | -0.31 ± 0.094
84 | I8L | -0.056 ± 0.089
85 | N19H | 0.056 ± 0.13
86 | N19Q | 0.132 ± 0.099
87 | N19E | -0.006 ± 0.093
88 | N19C | -0.957 ± 0.12
89 | N19R | -0.053 ± 0.085
90 | N19T | 0.118 ± 0.099
91 | N19L | -0.17 ± 0.088
92 | L17K | -0.071 ± 0.1
93 | L17I | 0.067 ± 0.14
94 | L17R | -0.304 ± 0.086
95 | S29T | 0.551 ± 0.11
96 | S29A | -0.086 ± 0.093

Row | Variant | abundance fitness
97 | S29H | 0.077 ± 0.12
98 | S29K | 0.03 ± 0.11
99 | K4I | -0.734 ± 0.14
100 | K4W | -1.05 ± 0.14
101 | K4D | 0.261 ± 0.12
102 | K4P | -0.236 ± 0.13
103 | K4L | -0.184 ± 0.093
104 | V43F | 0.063 ± 0.11
105 | V43R | 0.226 ± 0.085
106 | E6G | -0.198 ± 0.14
107 | E6T | -0.748 ± 0.37
108 | E6H | -0.687 ± 0.23
109 | E6N | -0.264 ± 0.28
110 | E6Y | -0.653 ± 0.26
111 | I3P | -0.586 ± 0.11
112 | I3M | 0.174 ± 0.11
113 | I3L | -0.254 ± 0.092
114 | S18G | -0.427 ± 0.088
115 | P20H | -0.883 ± 0.14
116 | P20M | -0.076 ± 0.11
117 | P20R | -0.416 ± 0.086
118 | P20T | -0.554 ± 0.11
119 | P20I | -0.498 ± 0.13
120 | P20W | -0.521 ± 0.096

Row | Variant | abundance fitness
121 | D13F | 0.041 ± 0.14
122 | D13R | -0.442 ± 0.089
123 | D13S | -0.352 ± 0.1
124 | K21T | -0.168 ± 0.1
125 | K21V | -0.116 ± 0.089
126 | K21W | -0.102 ± 0.098
127 | K21L | -0.091 ± 0.089
128 | K21P | 0.028 ± 0.1
129 | K21F | 0.01 ± 0.11
130 | Q16E | -0.397 ± 0.1
131 | Q16F | -0.376 ± 0.12
132 | Q16H | -0.077 ± 0.13
133 | E41T | 0.032 ± 0.094
134 | E41A | -0.07 ± 0.089
135 | E41L | -0.487 ± 0.089
136 | E41D | -0.093 ± 0.11
137 | E41F | -0.405 ± 0.13
138 | G44H | -0.292 ± 0.11
139 | S39W | -0.292 ± 0.097
140 | S39T | -0.065 ± 0.093
141 | S39E | 0.334 ± 0.092
142 | S39V | -0.357 ± 0.091
143 | N25A | 0.507 ± 0.088
144 | N25L | 0.083 ± 0.088

Row | Variant | abundance fitness
145 | N25K | 0.044 ± 0.11
146 | T27V | 0.06 ± 0.088
147 | T27R | -0.025 ± 0.084
148 | V35Q | 0.543 ± 0.099
149 | V35T | 0.302 ± 0.095
150 | V35W | 0.2 ± 0.089
151 | V35P | -0.848 ± 0.11
152 | T30Q | -0.159 ± 0.11
153 | T30L | -0.802 ± 0.11
154 | T30P | -0.923 ± 0.13
155 | T30M | -0.765 ± 0.15
156 | H37Y | -0.951 ± 0.14
157 | H37C | -1.5 ± 0.23
158 | H37D | -0.457 ± 0.13
159 | H37G | -0.565 ± 0.11
160 | C2M | 0.612 ± 0.12
161 | C2T | 0.126 ± 0.12
162 | C2P | -0.136 ± 0.13
163 | C2H | -0.126 ± 0.12
164 | C2K | 0.194 ± 0.15
165 | E15Q | -0.406 ± 0.13
166 | E15D | -0.254 ± 0.11
167 | E15L | 0.104 ± 0.087
